Article doi:10.1101/2025.11.04.686606, “The C-terminal intrinsically disordered region of a fungal LPMO binds copper and displays anti-fungal properties” (bioRxiv, 2025)

B1: PcoAA14A_FL, full-length AA14A lytic polysaccharide monooxygenase from Pycnoporus coccineus (enzyme, UniProt A0A2I6QAZ5 22-428, looked up)
chain: HAAFWDKSMYGFNVTAQTFPYDNRPQVPLYNMTFDQWWFHGHKDYPPNEGDFFELPAGGEVNSIISCDKGATPFYESSPGGDSGYGSNSPCPGQPMSEYHTTGIDDVKGCCMAIAYKPDVNDVQPDDFVVFSCNSTCVWEMNTKFEIPKLPACPEGGCHCAWFWIHSYDSGAEQIYMNGFKCKVTGDVGTQPLGKPAVPRRCGADPDHGKPDPTPGNCTIGAKTPMYWYQREGNNMFEDTYDAPYYNPLYGFNDGAQNDIFMDGVIASLASSGTGSSPTSTVDSSSSAAAASTSYPAQPTSSTQDAPGSSAYPSSSSDSVNSPTTQPYPASSASSTSEAQTTPAAVPTSVATEASSSPIASTTVDEAVVSSSTVGSINPTRSCKPRPSGVAAQKKKRKHARHLHNAH
modifications: glycosylated (glycans 34% of the molar mass by SEC-MALLS)
notes: PcoAA14A, AA14 family LPMO of Pycnoporus coccineus (syn. Trametes coccinea), Genbank KY769369; catalytic domain followed by a dCTR of 137 residues; theoretical mass 46 kDa; Expressed from pPICZalphaA; source: Pichia pastoris SuperMan5, secreted, purified (HisTrap); not shown: His6, C-terminal, kept
B2: P3 peptide, last 25 residues of PcoAA14A_dCTR (peptide, UniProt A0A2I6QAZ5 404-428, looked up)
peptide: CKPRPSGVAAQKKKRKHARHLHNAH
notes: the last 25 residues of PcoAA14A of Pycnoporus coccineus, starting with a Cys corresponding to Cys404; Unlabelled peptide in EPR and SAXS; the 5-FAM labelled form was used only on fungal spores; source: synthetic peptide, bought: GenScript

Columns and labels:
[1] = target: the molecule itself; assay: SEC-MALLS; Superdex200 10/300 GL Increase, 50 mM MES pH 6.5, 150 mM NaCl; protein conjugate analysis for glycans
[2] = target: the molecule itself; assay: SAXS; P3 at 2 mg/mL; conformational ensembles from 1 us MD simulations refined against SAXS data (Bayesian maximum entropy)

Protein	stoichiometry N [1]	stoichiometry N [2]
B1	2	
B2		2
